According to patent publication US20240035008:

Tested on: R2Tg (Taeniopygia guttata)
Assay: cell_activity
Conditions: homology-guided insertion without Cas9; RLE and RT dependent (Example 10 reports ~0.5%)

Sequence: TCCTGAGTCGTGCTGCGTCGACAACGGTAGTGACGCGTATTGCCTGGAGGGCGGACGCCGGCATTCGCCGCGTGGTTCCCAGCGACCTGTATCCCCTCGT (double strand) [NOLC1 target (homology arms)]
- activity: 0.1%
